Where “and” joins values, the source holds several entries; their conditions need not be identical. Identical values can stand only once. Residues, ends and D or L forms follow the SMILES beside them. *: point of attachment. Cbz = O=C(OCc1ccccc1)*
How the values were obtained:
Type in all cases: biochemical
[1] = target: T1, Aspergillus oryzae ATCC 20386 carboxypeptidase I (Aspergillus oryzae, UniProt Q2TZ11); test: Inhibition of the carboxypeptidase with 1,10-phenanthroline and phenylmethylsulfonyl fluoride; settings: furylacryloyl-Ala-Lys as substrate, pH 7.0, 20 mM phosphate buffer, hydrolysis monitored at 340 nm
T1 sequence (Q2TZ11 19-555): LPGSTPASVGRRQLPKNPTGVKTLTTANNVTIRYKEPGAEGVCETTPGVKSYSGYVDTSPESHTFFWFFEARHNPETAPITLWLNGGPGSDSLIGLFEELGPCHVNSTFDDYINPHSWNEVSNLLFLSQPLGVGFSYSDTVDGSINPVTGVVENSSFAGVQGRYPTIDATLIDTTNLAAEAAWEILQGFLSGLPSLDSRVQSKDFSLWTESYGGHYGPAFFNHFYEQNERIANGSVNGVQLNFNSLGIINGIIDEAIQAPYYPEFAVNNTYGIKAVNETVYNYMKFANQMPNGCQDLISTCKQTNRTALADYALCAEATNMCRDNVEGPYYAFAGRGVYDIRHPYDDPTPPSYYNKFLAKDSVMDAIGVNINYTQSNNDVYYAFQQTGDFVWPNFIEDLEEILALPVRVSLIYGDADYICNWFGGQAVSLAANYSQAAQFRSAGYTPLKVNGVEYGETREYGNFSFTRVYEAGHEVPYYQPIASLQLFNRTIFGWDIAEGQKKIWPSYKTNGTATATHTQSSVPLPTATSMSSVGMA
Description: Inhibition of the carboxypeptidase with 1,10-phenanthroline and phenylmethylsulfonyl fluoride was evaluated using furylacryloyl-Ala-Lys as substrate at pH 7.0 in 20 mM phosphate buffer where hydrolysis was monitored at 340 nm.

[2] = target: T1, Aspergillus oryzae ATCC 20386 carboxypeptidase I; test: Substrate specificity of the carboxypeptidase (hydrolysis of N-CBZ-Ala-X / N-CBZ-Glu-X); settings: 2 mM substrate, 2 hour incubation, 4.9×10^−7 M carboxypeptidase
Description: (§1) The substrate specificity of the carboxypeptidase was determined by measuring the hydrolysis of a substrate listed in Table 1 at pH 4.0 in 50 mM acetate buffer. o-Phthaldialdehyde together with dithiothreitol were used to monitor the liberation of free IIe, Glu, Lys, Arg, Asp, Asn, Gly, Phe, amd Tyr under enzymatic hydrolysis according to the procedure of Roth, M., 1971, Analytical Chemistry 43: 880. The kcat value for the hydrolysis of N-CBZ-Ala-X or N-CBZ-Glu-X was determined based on the assumption that molecular weight of the carboxypeptidase was 68 kD and that the enzyme preparation was homogeneous.

[3] = test system: Aspergillus oryzae ATCC 20386 carboxypeptidase I; test: as above; settings: compared with literature values
Description: as §1

[4] = substrate: C[C@H](NC(=O)/C=C/c1ccco1)C(=O)N[C@@H](CCCCN)C(=O)O; test: Km of the carboxypeptidase toward furylacryloyl-Ala-Lys; settings: other: pH 4.0, 25° C.
Soy Meal = test: Protein hydrolysis, degree of hydrolysis (DH), soy meal; settings: Soy Meal 2% (w/v), pH 7.0, 18 hours at 50° C.; FLAVOURZYME 3 LAPU, carboxypeptidase 11.5 CPDU
Description: (§2) Commercial grade soy meal, wheat gluten, casein and gelatin were used as protein substrates. The soy meal was prepared from defatted toasted soy grits 20/80/20 (Cargill BV, NL); vital wheat gluten was obtained from Crespel and Dieters, Denmark; casein was obtained as Na-Caseinate Miprodan (MD Foods, Denmark); and gelatin was obtained as Bonegelatin (DGF Stores, Denmark).
(§3) The substrates were prepared as a 2% (w/v) aqueous solution, in which the protein concentration was determined by the method of Kjeldahl. Two hundred mg of each substrate, obtained in the form of a dry composition, was dissolved in 9 ml of tap water and the pH was adjusted to 7.0. […]
(§4) The hydrolysates were cooled and the degree of hydrolysis (DH) was assayed in microtiter plates using OPA (ortho-phtaldialdehyde, Sigma Chemical Co., St. Louis, Mo.) as the detecting reagent. The DH, defined as described in by Adler-Nissen (1986, Enzymic Hydrolysis of Food Proteins, Elsevier Applied Science Publishers), was determined by reaction of the supernatant with OPA (ortho-phtaldialdehyde, Sigma Chemical Co., St. Louis, Mo.). […]
(§5) A volume of 25 μl of suitably diluted supernatant was mixed with 200 μl of OPA reagent in a microtiter plate well and allowed to react for exactly 2 minutes at 25° C. […] The degree of hydrolysis was calculated on basis of the total amount of protein in the hydrolysis mixture (not on basis of soluble protein).

Gelatin = test: Protein hydrolysis, degree of hydrolysis (DH), gelatin; settings: Gelatin 2% (w/v), pH 7.0, 18 hours at 50° C.; FLAVOURZYME 3 LAPU, carboxypeptidase 11.5 CPDU
Description: as §2, §3, §4, §5

[5] = Specific activity of the carboxypeptidase (CPDU assay); settings: 0.5 mM N-CBZ-Ala-Glu, pH 4.5, 25° C.
Description: The activity of the carboxypeptidase was determined by measuring the rate of specific hydrolysis of N-CBZ-Ala-Glu. One carboxypeptidase unit (CPDU) is the amount of carboxypeptidase which liberates 1 micromole of glutamate per minute from a 0.5 mM N-CBZ-Ala-Glu solution at pH 4.5 and 25° C. A reagent containing o-phthaldialdehyde in combination with dithiothreitol was used to monitor the liberation of free glutamate under enzymatic hydrolysis according to the procedure of Roth, 1971, supra. The o-phthaldialdehyde reagent was a solution of o-phthaldialdehyde (6 mM) and dithiothreitol (6.5 mM) in 0.1 M sodium tetraborate. Briefly, 0.05 ml of the enzyme solution in 20 mM acetate buffer, pH 4.5 was incubated with 1 ml of substrate. At regular time intervals, a 0.3 ml aliquot was withdrawn, mixed with 0.9 ml of the o-phthaldialdehyde reagent, and the absorption at A340, using a path length of 1 cm, of the resultant product was measured. Where the dependence of A340 on the incubation time was linear, the specific activity of the enzyme was calculated using the equation: specific activity=slope (optical density per min)×11.35. By this procedure, the specific activity of the purified carboxypeptidase was determined to be 11 CPDU per mg protein which is equivalent to 11 micromoles glutamate per minute per mg protein.

[6] = test system: soy meal, wheat gluten, casein and gelatin; test: Protein hydrolysis, DH, summary for all substrates
Description: as §2, §3, §4, §5

Casein = test: Protein hydrolysis, degree of hydrolysis (DH), casein; settings: Casein 2% (w/v), pH 7.0, 18 hours at 50° C.; FLAVOURZYME 3 LAPU, carboxypeptidase 11.5 CPDU
Description: as §2, §3, §4, §5

Wheat Gluten = test: Protein hydrolysis, degree of hydrolysis (DH), wheat gluten; settings: Wheat Gluten 2% (w/v), pH 7.0, 18 hours at 50° C.; FLAVOURZYME 3 LAPU, carboxypeptidase 11.5 CPDU
Description: as §2, §3, §4, §5

[7] = Thermostability of the carboxypeptidase (residual activity); settings: 10 minute incubation, 50 mM acetate buffer

For `c1cnc2c(c1)ccc1cccnc12` [1,10-phenanthroline], which “Inhibition of carboxypeptidase activity” value [1] is on record?
Its value is “does not inhibit”.

For `C[C@H](NC(=O)OCc1ccccc1)C(=O)N1CCC[C@H]1C(=O)O` [N-CBZ-Ala-Pro] (Cbz-Ala-Pro-OH), which “fraction of substrate solution hydrolyzed” value [2] is on record?
Its value is 16%.

For `C[C@H](NC(=O)OCc1ccccc1)C(=O)N[C@@H](Cc1ccccc1)C(=O)O` [N-CBZ-Ala-Phe], which “kcat relative to acid carboxypeptidases O-1 and O-2 from Aspergillus oryzae” value [3] is on record?
Its value is “at least 8.5 fold”.

Which “Inhibition of carboxypeptidase activity” value [1] does the source give for `O=S(=O)(F)Cc1ccccc1` [phenylmethylsulfonyl fluoride] here?
The value was “inhibits carboxypeptidase activity completely”.

B1: Aspergillus oryzae ATCC 20386 carboxypeptidase I (Aspergillus oryzae RIB40) (protein)
chain: LPGSTPASVGRRQLPKNPTGVKTLTTANNVTIRYKEPGAEGVCETTPGVKSYSGYVDTSPESHTFFWFFEARHNPETAPITLWLNGGPGSDSLIGLFEELGPCHVNSTFDDYINPHSWNEVSNLLFLSQPLGVGFSYSDTVDGSINPVTGVVENSSFAGVQGRYPTIDATLIDTTNLAAEAAWEILQGFLSGLPSLDSRVQSKDFSLWTESYGGHYGPAFFNHFYEQNERIANGSVNGVQLNFNSLGIINGIIDEAIQAPYYPEFAVNNTYGIKAVNETVYNYMKFANQMPNGCQDLISTCKQTNRTALADYALCAEATNMCRDNVEGPYYAFAGRGVYDIRHPYDDPTPPSYYNKFLAKDSVMDAIGVNINYTQSNNDVYYAFQQTGDFVWPNFIEDLEEILALPVRVSLIYGDADYICNWFGGQAVSLAANYSQAAQFRSAGYTPLKVNGVEYGETREYGNFSFTRVYEAGHEVPYYQPIASLQLFNRTIFGWDIAEGQKKIWPSYKTNGTATATHTQSSVPLPTATSMSSVGMA
For B1, which Km [4] is on record?
Its Km is 400 µM.

B2: carboxypeptidase: carboxypeptidase purified from FLAVOURZYME broth, approximately 68 kDa serine carboxypeptidase, amino acid sequence SEQ ID NO: 2 (protein, listed as Aspergillus oryzae)
chain: MRGYEFLSVLPLVAASWALPGSTPASVGRRQLPKNPTGVKTLTTANNVTIRYKEPGAEGVCETTPGVKSYSGYVDTSPESHTFFWFFEARHNPETAPITLWLNGGPGSDSLIGLFEELGPCHVNSTFDDYINPHSWNEVSNLLFLSQPLGVGFSYSDTVDGSINPVTGVVENSSFAGVQGRYPTIDATLIDTTNLAAEAAWEILQGFLSGLPSLDSRVQSKDFSLWTESYGGHYGPAFFNHFYEQNERIANGSVNGVQLNFNSLGIINGIIDEAIQAPYYPEFAVNNTYGIKAVNETVYNYMKFANQMPNGCQDLISTCKQTNRTALADYALCAEATNMCRDNVEGPYYAFAGRGVYDIRHPYDDPTPPSYYNKFLAKDSVMDAIGVNINYTQSNNDVYYAFQQTGDFVWPNFIEDLEEILALPVRVSLIYGDADYICNWFGGQAVSLAANYSQAAQFRSAGYTPLKVNGVEYGETREYGNFSFTRVYEAGHEVPYYQPIASLQLFNRTIFGWDIAEGQKKIWPSYKTNGTATATHTQSSVPLPTATSMSSVGMA
With B2 as the molecule, how does the DH (Soy Meal) read?
Its DH is 0.

What about the DH (Gelatin) of the same molecule?
Its DH is 0.

And the specific activity [5]?
Its specific activity is 11 CPDU per mg protein and 11 micromoles glutamate per minute per mg protein.

What about the “effect on DH, enzyme alone” value [6] of the same molecule?
The value was “no effect”.

And the “effect on the DH obtained by FLAVOURZYME when added with FLAVOURZYME” value [6]?
Its value is “enhanced”.

And the DH (Casein)?
Its DH is 0.

What about the DH (Wheat Gluten) of the same molecule?
Its DH is 0.

And the residual activity ([7]; pH 4.0, 55° C.)?
The residual activity was 74%.

What about the residual activity ([7]; pH 4.0, 60° C.) of the same molecule?
Its residual activity is 65%.

Source: patent publication US7091002B2, “Carboxypeptidases and nucleic acids encoding same” (Novozymes, Inc., priority 1996, dated 2006)
